These results are taken from patent US20080124340A1 (published 2008).

Numbering of substitutions follows the chain as printed.

To fix the notation:
T1: mouse EpoR-Fc protein (muEpoR-Fc) (mouse, UniProt P14753 25-249)
T1 construct: Biotinylated in the assay; also called biotinylated muEpoR-Fc; not shown: Fc part not described
T1 sequence (looked up): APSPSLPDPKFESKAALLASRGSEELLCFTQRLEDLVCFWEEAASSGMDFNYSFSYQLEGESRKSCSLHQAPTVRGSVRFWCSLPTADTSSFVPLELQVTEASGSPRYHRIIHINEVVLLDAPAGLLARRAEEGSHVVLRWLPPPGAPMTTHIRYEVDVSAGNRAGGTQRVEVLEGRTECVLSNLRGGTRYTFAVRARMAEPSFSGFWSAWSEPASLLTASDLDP

B1: clone 10 IgG2 protein (antibody, V domains shown)
VH: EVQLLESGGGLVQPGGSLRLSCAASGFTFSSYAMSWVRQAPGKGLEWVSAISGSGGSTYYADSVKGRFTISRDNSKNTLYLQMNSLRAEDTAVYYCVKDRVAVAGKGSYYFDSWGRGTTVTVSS
VL: QSVLTQPPSVSEAPGQRVTIACSGSSSNIGNNAVSWYQQLPGKAPTLLIYYDNLLPSGVSDRFSGSKSGTSASLAISGLQSEDEADYYCAAWDDSLNDWVFGGGTKVTVL
notes: Human IgG2; also called IgG2 10
B2: clone 2 IgG2 protein (antibody, V domains shown)
VH: EVQLVQSGGGLVQPGGSLRLSCAASGFTFSSYWMSWVRQAPGKGLEWVANIKPDGSEKYYVDSVKGRFTISRDNAKNSVYLQMNSLRAEDTAVYYCARVSRGGSYSDWGQGTLVTVSS
VL: QSVLTQPPSASGSPGQSVTISCTGTSSDVGGYNYVSWYQQHPGKAPKLMIYEVSKRPSGVPDRFSGSKSGNTASLTVSGLQPEDEADYYCSSYAGRNWVFGGGTQLTVL
notes: Human IgG2 (vector pVE414NhuIgG2); light chain constant type matches the variable light chain isotype; also called IgG2 2; IgG22
B3: clone 5 IgG2 protein (antibody, V domains shown)
VH: B2 VH with Q6E
VL: QSALTQPASVSGSPGQSITISCTGTSSDVGGYIYVSWYQQHPGKAPKLMIYDVSRRPSGISDRFSGSKSGNTASLTISGLQAEDEADYYCNSYTTLSTWLFGGGTKVTVL
notes: Human IgG2; also called IgG2 5; IgG25
B4: clone 7 IgG2 protein (antibody, V domains shown)
VH: B2 VH with Q110K
VL: QSALTQPASVSGSPGQSIIISCTGTRSDIGGYNYVSWYQHHPGRAPKLIIFDVNNRPSGVSHRFSGSKSGNTASLTISGLQAEDEADYYCNSFTDSRTWLFGGGTKLTVL
notes: Human IgG2; also called IgG2 7
B5: clone 30 IgG2 protein (antibody, V domains shown)
VH: QVQLQESGPGLVKPSQTLSLTCAISGDSVSSNSAAWNWIRQSPSRGLEWLGRTYYRSKWYNDYAVSVKSRMTIKADTSKNQFSLQLNSVTPEDTAVYYCARDEGPLDYWGQGTLVTVSA
VL: QAVLTQPSSVSGAPGQRVTISCTGSSSNLGTGYDVHWYQQLPGTAPKLLIYGNSNRPSGVPDRFSGSKSDTSGLLAITGLQAEDEATYYCQSYDFSLSAMVFGGGTKVTVL
notes: Human IgG2; also called IgG2 30

For the experiment, the target named is T1, mouse EpoR-Fc protein (muEpoR-Fc). The experiment is described as follows: ELISA: antibody coated at 1 µg/ml, biotinylated muEpoR-Fc at 5 µg/ml, streptavidin-HRP, ABTS. In general terms: An ELISA detects its analyte on a solid surface through an enzyme-linked reagent.
With B1, the binding result was “binds”. The result for B2 reads “binds”; that for B3, “binds”. To B4 belongs “binds”; to B5, “binds”.
